Measurements taken from US20190038582A1 (published 2019).
Like-named read-outs stand apart in the source and are kept apart here. Values belong to the binder of their own block, whether it stands above or below them.

Key:
[1] = biological target: T1, dephosphorylated Aurora A kinase (Aurora A^122-403) (human, UniProt O14965 122-403); assay: ITC
T1 construct: also called AurA; deP Aurora A^122-403
T1 sequence: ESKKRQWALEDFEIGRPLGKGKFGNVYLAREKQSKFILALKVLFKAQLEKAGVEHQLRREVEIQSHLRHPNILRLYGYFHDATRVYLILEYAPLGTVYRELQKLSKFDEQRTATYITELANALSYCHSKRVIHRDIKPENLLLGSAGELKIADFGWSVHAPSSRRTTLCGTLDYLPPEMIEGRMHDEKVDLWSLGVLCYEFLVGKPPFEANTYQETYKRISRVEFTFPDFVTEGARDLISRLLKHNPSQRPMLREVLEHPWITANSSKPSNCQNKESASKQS
Procedure: Error bars in FIGS. 18D and 18F represent the standard error for the estimate of Kd and are a measure of the goodness of fit of the data. Error bars in FIG. 18C were calculated through jackknifing.
(§1) Titrations were carried out using Nano ITC isothermal titration calorimeter (TA Instruments) and analyzed via the NanoAnalyze software using the independent fit model. Injectant was added in 1 μl volume, every 180 s, with a constant stirring speed at 350 rpm and at 25° C.

[2] = biological target: T2, dephosphorylated Aurora A kinase (Aurora A^122-403) (UniProt O14965 122-403); assay: ITC
T2 chain: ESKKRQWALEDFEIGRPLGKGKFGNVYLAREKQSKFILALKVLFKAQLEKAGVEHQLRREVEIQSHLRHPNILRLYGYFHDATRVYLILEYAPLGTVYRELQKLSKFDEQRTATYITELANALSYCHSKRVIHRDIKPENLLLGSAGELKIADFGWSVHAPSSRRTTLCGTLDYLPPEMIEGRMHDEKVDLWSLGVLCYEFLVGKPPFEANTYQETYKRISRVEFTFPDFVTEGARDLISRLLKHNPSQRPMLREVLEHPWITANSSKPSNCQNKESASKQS

[3] = biological target: T3, Aurora A kinase in HEK293 cells (human, UniProt O14965 1-403); assay: immunofluorescence co-localization in HEK293 cells
T3 construct: not on the cell surface; also called Aurora A kinase (endogenous, HEK293)
T3 sequence: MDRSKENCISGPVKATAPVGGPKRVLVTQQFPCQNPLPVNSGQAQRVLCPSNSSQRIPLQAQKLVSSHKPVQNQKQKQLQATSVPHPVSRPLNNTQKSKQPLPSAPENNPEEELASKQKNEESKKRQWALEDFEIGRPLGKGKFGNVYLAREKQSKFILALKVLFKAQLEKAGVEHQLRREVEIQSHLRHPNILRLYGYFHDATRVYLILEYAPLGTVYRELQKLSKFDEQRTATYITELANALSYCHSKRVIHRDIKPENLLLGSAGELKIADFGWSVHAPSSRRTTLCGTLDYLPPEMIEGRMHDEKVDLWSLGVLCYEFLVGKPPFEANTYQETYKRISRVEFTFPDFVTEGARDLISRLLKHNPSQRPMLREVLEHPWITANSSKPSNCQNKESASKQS

[4] = biological target: T2, dephosphorylated Aurora A kinase …; assay: ITC
TPX2 = biological target: T4, TPX2
T4 chain: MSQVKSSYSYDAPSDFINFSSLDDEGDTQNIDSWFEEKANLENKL

[5] = biological target: T1, dephosphorylated Aurora A kinase …; assay: ITC; Aurora A pre-saturated with barasertib
Procedure: as §1

[6] = biological target: T2, dephosphorylated Aurora A kinase …; assay: ITC
[7] = biological target: T2, dephosphorylated Aurora A kinase …; assay: ITC
[8] = biological target: T1, dephosphorylated Aurora A kinase …; assay: told with the kinase assay results (FIG. 9); method of the affinity not named there
[9] = biological target: T2, dephosphorylated Aurora A kinase …; assay: ITC

- binding result [1]: binds
- Kd [2]: 175 nM
B1: monobody Mb54 (AuroraA_54) (designed binder)
chain: GSVSSVPTKLEVVAATPTSLLISWDAQTYQMYDYVSYYRITYGETGGNSPVQEFTVPGYYSTATISGLKPGVDYTITVYAEGYYSSYSPISINYRT
notes: FN3-scaffold monobody; also called Mb1

- binding result [1]: binds
- binding result [3]: binds
- Kd [4]: 121 nM
B2: sGFP-Mb54 fusion polypeptide (designed binder)
chain: GSVSSVPTKLEVVAATPTSLLISWDAQTYQMYDYVSYYRITYGETGGNSPVQEFTVPGYYSTATISGLKPGVDYTITVYAEGYYSSYSPISINYRT
notes: also called sGFP-Mb54 (aka Mb1); sGFP-Mb1; not shown: supercharged GFP (sGFP)

B3: Aurora A T288V mutant (A^122-403 T288V) (protein)
chain: ESKKRQWALEDFEIGRPLGKGKFGNVYLAREKQSKFILALKVLFKAQLEKAGVEHQLRREVEIQSHLRHPNILRLYGYFHDATRVYLILEYAPLGTVYRELQKLSKFDEQRTATYITELANALSYCHSKRVIHRDIKPENLLLGSAGELKIADFGWSVHAPSSRRTVLCGTLDYLPPEMIEGRMHDEKVDLWSLGVLCYEFLVGKPPFEANTYQETYKRISRVEFTFPDFVTEGARDLISRLLKHNPSQRPMLREVLEHPWITANSSKPSNCQNKESASKQS
- kinase activity (phosphorylation of AP peptide) (TPX2): greatly increased its kinase activity

B4: phosphorylated Aurora A kinase (protein)
chain: ESKKRQWALEDFEIGRPLGKGKFGNVYLAREKQSKFILALKVLFKAQLEKAGVEHQLRREVEIQSHLRHPNILRLYGYFHDATRVYLILEYAPLGTVYRELQKLSKFDEQRTATYITELANALSYCHSKRVIHRDIKPENLLLGSAGELKIADFGWSVHAPSSRRTTLCGTLDYLPPEMIEGRMHDEKVDLWSLGVLCYEFLVGKPPFEANTYQETYKRISRVEFTFPDFVTEGARDLISRLLKHNPSQRPMLREVLEHPWITANSSKPSNCQNKESASKQS
- kinase activity (phosphorylation of AP peptide) (TPX2): only slightly increased kinase activity

- fold weakening of binding affinity (Aurora A pre-saturated with barasertib against Aurora A alone) [5]: 5 fold
- Kd [6]: 3280 nM
B5: monobody Mb44 (AuroraA_44) (designed binder)
chain: GSVSSVPTKLEVVAATPTSLLISWDAPAVTVDFYVITYGETGGYSYPWQEFEVPGSKSTATISGLKPGVDYTITVYADYGQYFYSPISINYRT
notes: FN3-scaffold monobody; also called M44

- fold weakening of binding affinity (Aurora A pre-saturated with barasertib against Aurora A alone) [5]: 2.8 fold
- Kd [6]: 76.9 nM
B6: monobody Mb51 (AuroraA_51) (designed binder)
chain: GSVSSVPTKLEVVAATPTSLLISWDAKPMSYEPVYYYRITYGETGGNSPVQEFTVPGYYSTATISGLKPGVDYTITVYADSMSSYYYSPISINYRT
notes: FN3-scaffold monobody

- binding result [3]: binds
- Kd [4]: 27.4 nM
B7: sGFP-Mb6 fusion polypeptide (designed binder)
chain: GSVSSVPTKLEVVAATPTSLLISWDAFGHQYEPVYYYRITYGETGGNSPVQEFTVPGYYSTATISGLKPGVDYTITVYAWYVDGSYSSPISINYRT
notes: also called neutral sGFP-Mb6; not shown: supercharged GFP (sGFP)

- Kd [7]: 8.7 nM
- binding result [8]: binds
B8: monobody Mb2 (aka Mb6) (AuroraA_2) (designed binder)
chain: GSVSSVPTKLEVVAATPTSLLISWDAFGHQYEPVYYYRITYGETGGNSPVQEFTVPGYYSTATISGLKPGVDYTITVYAWYVDGSYSSPISINYRT
notes: also called neutral monobody

- binding result [1]: binds
- Kd [2]: 1000 nM
B9: monobody Mb60 (AuroraA_60) (designed binder)
chain: GSVSSVPTKLEVVAATPTSLLISWDAPAVTVVHYVITYGETGGNSPVQEFTVPGSKSTATISGLKPGVDYTITVYAIDFYWGSYSPISINYRT
notes: FN3-scaffold monobody; also called Mb2 (alternative name herein)

- binding result [1]: binds
- binding result [3]: binds
- Kd [9]: 2500 nM
B10: sGFP-Mb60 fusion polypeptide (designed binder)
chain: GSVSSVPTKLEVVAATPTSLLISWDAPAVTVVHYVITYGETGGNSPVQEFTVPGSKSTATISGLKPGVDYTITVYAIDFYWGSYSPISINYRT
notes: also called sGFP-Mb2 (aka Mb60); not shown: supercharged GFP (sGFP)

- binding result [1]: binds
- Kd [6]: 163 nM
B11: monobody Mb56 (AuroraA_56) (designed binder)
chain: GSVSSVPTKLEVVAATPTSLLISWDAMSDWYYWVDYYRITYGETGGNSPVQEFTVPGSYSTATISGLKPGVDYTITVYASDDVWGDYSPISINYRT
notes: FN3-scaffold monobody; also called Mb3

- Kd [1]: ~5000 nM
- Kd [2]: 5400 nM
B12: TPX2 (other)
chain: MSQVKSSYSYDAPSDFINFSSLDDEGDTQNIDSWFEEKANLENKL
notes: also called TPX2 polypeptide
